The source of these data is the supplement of paper PMC5998384.

In data set [1] the test system is HeLa Kyoto. The experiment in a line: solubility in G1/S (NP-40 vs SDS abundance) (log2 ratio); higher = more soluble. Particulars: cell cycle stage: G1/S.
Data set [2] relates to HeLa Kyoto. Briefly: melting temperature (median over replicates), in situ; higher = more thermally stable.
Data set [3] relates to HeLa Kyoto. Briefly: solubility change mitosis vs G1/S (difference of NP-40 vs SDS log2 ratios) (log2 ratio difference); higher = more soluble in mitosis.
The test system of data set [4] is HeLa Kyoto. Briefly: thermal stability score vs G1/S (z-score of summed log2 fold changes over temperatures); higher = more thermally stable than in G1/S.
Setting [5] is: cell cycle stage: early G1 (4.5 h after nocodazole release).
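For melting temperature (median over replicates), in situ in this document: HeLa Kyoto cells synchronized by double thymidine or nocodazole block, proteins quantified by TMT10plex mass spectrometry, three independent biological replicates.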
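For solubility change mitosis vs G1/S (difference of NP-40 vs SDS log2 ratios) in this document: synchronized HeLa Kyoto cells (double thymidine block for G1/S, nocodazole release for mitosis), protein amounts in NP-40 versus SDS lysates quantified by mass spectrometry, three biological replicates.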
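For solubility in G1/S (NP-40 vs SDS abundance) in this document: HeLa Kyoto cells arrested at G1/S by double thymidine block, proteins quantified by TMT10plex mass spectrometry in mild NP-40 versus SDS extracts, three biological replicates.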
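For thermal stability score vs G1/S (z-score of summed log2 fold changes over temperatures) in this document: synchronized HeLa Kyoto cells, proteins quantified by TMT10plex mass spectrometry, three biological replicates, mitosis taken 0.5 h after nocodazole release, G1/S directly after double thymidine block.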

Chain of MTR (chain, as listed by the source): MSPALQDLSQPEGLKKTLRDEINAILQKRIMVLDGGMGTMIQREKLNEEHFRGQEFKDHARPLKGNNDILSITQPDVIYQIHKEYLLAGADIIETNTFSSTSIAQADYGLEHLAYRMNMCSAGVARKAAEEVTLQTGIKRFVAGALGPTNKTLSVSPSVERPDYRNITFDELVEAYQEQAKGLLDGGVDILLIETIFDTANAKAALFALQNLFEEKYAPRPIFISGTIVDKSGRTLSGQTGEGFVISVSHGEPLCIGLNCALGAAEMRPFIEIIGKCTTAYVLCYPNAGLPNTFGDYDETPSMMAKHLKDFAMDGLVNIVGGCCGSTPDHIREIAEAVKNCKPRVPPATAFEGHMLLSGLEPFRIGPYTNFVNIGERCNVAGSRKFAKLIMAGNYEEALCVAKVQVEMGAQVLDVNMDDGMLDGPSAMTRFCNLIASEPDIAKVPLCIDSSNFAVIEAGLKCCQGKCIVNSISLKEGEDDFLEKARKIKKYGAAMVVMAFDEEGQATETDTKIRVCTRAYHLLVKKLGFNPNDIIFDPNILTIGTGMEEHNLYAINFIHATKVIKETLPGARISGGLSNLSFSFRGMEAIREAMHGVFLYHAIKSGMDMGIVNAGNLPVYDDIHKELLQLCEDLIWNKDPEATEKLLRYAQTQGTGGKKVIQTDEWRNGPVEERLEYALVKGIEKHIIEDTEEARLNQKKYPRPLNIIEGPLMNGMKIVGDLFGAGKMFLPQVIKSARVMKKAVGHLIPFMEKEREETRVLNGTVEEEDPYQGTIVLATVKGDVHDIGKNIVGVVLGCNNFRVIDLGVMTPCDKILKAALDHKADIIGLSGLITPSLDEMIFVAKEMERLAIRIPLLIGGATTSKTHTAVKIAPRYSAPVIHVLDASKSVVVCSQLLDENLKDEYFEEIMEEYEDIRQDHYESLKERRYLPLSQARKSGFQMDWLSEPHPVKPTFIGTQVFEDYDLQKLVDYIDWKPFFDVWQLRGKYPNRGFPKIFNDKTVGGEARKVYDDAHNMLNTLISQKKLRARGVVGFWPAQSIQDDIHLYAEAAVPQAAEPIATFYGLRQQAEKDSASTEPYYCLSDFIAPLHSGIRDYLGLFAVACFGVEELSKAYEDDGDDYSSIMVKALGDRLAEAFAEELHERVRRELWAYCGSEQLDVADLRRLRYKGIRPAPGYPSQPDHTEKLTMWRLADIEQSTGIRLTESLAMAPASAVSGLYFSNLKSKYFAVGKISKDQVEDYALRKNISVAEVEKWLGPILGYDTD

As for “MTLESMMACCLSDEVKESKRINAEIEKQLRRDKRDARRELKLLLLGTGESGKSTFIKQMRIIHGAGYSEEDKRGFTKLVYQNIFTAMQAMIRAMETLKILYKYEQNKANALLIREVDVEKVTTFEHQYVSAIKTLWEDPGIQECYDRRREYQLSDSAKYYLTDVDRIATLGYLPTQQDVLRVRVPTTGIIEYPFDLENIIFRMVDVGGQRSERRKWIHCFENVTSIMFLVALSEYDQVLVESDNENRMEESKALFRTIITYPWFQNSSVILFLNKKDLLEDKILYSHLVDYFPEFDGPQRDAQAAREFILKMFVDLNPDSDKIIYSHFTCATDTENIRFVFAAVKDTILQLNLKEYNLV [GNA11]”, the “solubility in G1/S (log2)” value in data set [1] was -0.276. Besides, the melting temperature in data set [2] (cell cycle stage: G1/S) worked out at 51.1 °C; in data set [2] (cell cycle stage: mitosis) it was 50.6 °C. The “solubility change mitosis (log2)” value in data set [3] was -0.121. Further, the results for the thermal stability score in data set [4] (setting [5]) and in data set [4] (cell cycle stage: mitosis) were 0.848 and 0.911, respectively.

For the substance “MTMDKSELVQKAKLAEQAERYDDMAAAMKAVTEQGHELSNEERNLLSVAYKNVVGARRSSWRVISSIEQKTERNEKKQQMGKEYREKIEAELQDICNDVLELLDKYLIPNATQPESKVFYLKMKGDYFRYLSEVASGDNKQTTVSNSQQAYQEAFEISKKEMQPTHPIRLGLALNFSVFYYEILNSPEKACSLAKTAFDEAIAELDTLNEESYKDSTLIMQLLRDNLTLWTSENQGDEGDAGEGEN [YWHAB]”, in data set [1], the “solubility in G1/S (log2)” value is 0.324. In addition, the results for the melting temperature in data set [2] (cell cycle stage: G1/S) and in data set [2] (cell cycle stage: mitosis) were 52.6 °C and 52.8 °C, respectively. Also, the “solubility change mitosis (log2)” value in data set [3] came to 0.402. In addition, the thermal stability score in data set [4] (setting [5]) is -1.46; in data set [4] (cell cycle stage: mitosis), -2.76.

For “MTPSQVAFEIRGTLLPGEVFAICGSCDALGNWNPQNAVALLPENDTGESMLWKATIVLSRGVSVQYRYFKGYFLEPKTIGGPCQVIVHKWETHLQPRSITPLESEIIIDDGQFGIHNGVETLDSGWLTCQTEIRLRLHYSEKPPVSITKKKLKKSRFRVKLTLEGLEEDDDDRVSPTVLHKMSNSLEISLISDNEFKCRHSQPECGYGLQPDRWTEYSIQTMEPDNLELIFDFFEEDLSEHVVQGDALPGHVGTACLLSSTIAESGKSAGILTLPIMSRNSRKTIGKVRVDYIIIKPLPGYSCDMKSSFSKYWKPRIPLDVGHRGAGNSTTTAQLAKVQENTIASLRNAASHGAAFVEFDVHLSKDFVPVVYHDLTCCLTMKKKFDADPVELFEIPVKELTFDQLQLLKLTHVTALKSKDRKESVVQEENSFSENQPFPSLKMVLESLPEDVGFNIEIKWICQQRDGMWDGNLSTYFDMNLFLDIILKTVLENSGKRRIVFSSFDADICTMVRQKQNKYPILFLTQGKSEIYPELMDLRSRTTPIAMSFAQFENLLGINVHTEDLLRNPSYIQEAKAKGLVIFCWGDDTNDPENRRKLKELGVNGLIYDRIYDWMPEQPNIFQVEQLERLKQELPELKSCLCPTVSRFVPSSLCGESDIHVDANGIDNVENA [GPCPD1]”, in data set [1], the “solubility in G1/S (log2)” value came to 0.0477. For the same substance, the melting temperature in data set [2] (cell cycle stage: G1/S) amounted to 50 °C; in data set [2] (cell cycle stage: mitosis) it was 50.6 °C. In addition, the “solubility change mitosis (log2)” value in data set [3] is -0.12. In addition, the thermal stability score in data set [4] (setting [5]) is -0.29; in data set [4] (cell cycle stage: mitosis) it was -0.26.

In the case of “MTQAEIKLCSLLLQEHFGEIVEKIGVHLIRTGSQPLRVIAHDTGTSLDQVKKALCVLVQHNLVSYQVHKRGVVEYEAQCSRVLRMLRYPRYIYTTKTLYSDTGELIVEELLLNGKLTMSAVVKKVADRLTETMEDGKTMDYAEVSNTFVRLADTHFVQRCPSVPTTENSDPGPPPPAPTLVINEKDMYLVPKLSLIGKGKRRRSSDEDAAGEPKAKRPKYTTDNKEPIPDDGIYWQANLDRFHQHFRDQAIVSAVANRMDQTSSEIVRTMLRMSEITTSSSAPFTQPLSSNEIFRSLPVGYNISKQVLDQYLTLLADDPLEFVGKSGDSGGGMYVINLHKALASLATATLESVVQERFGSRCARIFRLVLQKKHIEQKQVEDFAMIPAKEAKDMLYKMLSENFMSLQEIPKTPDHAPSRTFYLYTVNILSAARMLLHRCYKSIANLIERRQFETKENKRLLEKSQRVEAIIASMQATGAEEAQLQEIEEMITAPERQQLETLKRNVNKLDASEIQVDETIFLLESYIECTMKRQ [POLR3C]”, the “solubility in G1/S (log2)” value in data set [1] was 0.132. For the same substance, the melting temperature worked out at 50.5 °C in data set [2] (cell cycle stage: G1/S) and 51.1 °C in data set [2] (cell cycle stage: mitosis). Also, in data set [3], the “solubility change mitosis (log2)” value is -0.0973. Besides, the values for the thermal stability score in data set [4] (setting [5]) and in data set [4] (cell cycle stage: mitosis) were 1.65 and 1.67, respectively.

MTR: the “solubility in G1/S (log2)” value in data set [1] amounted to 0.00491. Besides, the melting temperature in data set [2] (cell cycle stage: G1/S) amounted to 48.6 °C; in data set [2] (cell cycle stage: mitosis) it was 49.9 °C. Further, the “solubility change mitosis (log2)” value in data set [3] is -0.144. Further, the values for the thermal stability score in data set [4] (setting [5]) and in data set [4] (cell cycle stage: mitosis) were -0.177 and 0.37, respectively.

On to “MTSKQAMSSNEQERLLCYNGEVLVFQLSKGNFADKEPTKTPILHVRRMVFDRGTKVFVQKSTGFFTIKEENSHLKIMCCNCVSDFRTGINLPYIVIEKNKKNNVFEYFLLILHSTNKFEMRLSFKLGYEMKDGLRVLNGPLILWRHVKAFFFISSQTGKVVSVSGNFSSIQWAGEIENLGMVLLGLKECCLSEEECTQEPSKSDYAIWNTKFCVYSLESQEVLSDIYIIPPAYSSVVTYVHICATEIIKNQLRISLIALTRKNQLISFQNGTPKNVCQLPFGDPCAVQLMDSGGGNLFFVVSFISNNACAVWKESFQVAAKWEKLSLVLIDDFIGSGTEQVLLLFKDSLNSDCLTSFKITDLGKINYSSEPSDCNEDDLFEDKQENRYLVVPPLETGLKVCFSSFRELRQHLLLKEKIISKSYKALINLVQGKDDNTSSAEEKECLVPLCGEEENSVHILDEKLSDNFQDSEQLVEKIWYRVIDDSLVVGVKTTSSLKLSLNDVTLSLLMDQAHDSRFRLLKCQNRVIKLSTNPFPAPYLMPCEIGLEAKRVTLTPDSKKEESFVCEHPSKKECVQIITAVTSLSPLLTFSKFCCTVLLQIMERESGNCPKDRYVVCGRVFLSLEDLSTGKYLLTFPKKKPIEHMEDLFALLAAFHKSCFQITSPGYALNSMKVWLLEHMKCEIIKEFPEVYFCERPGSFYGTLFTWKQRTPFEGILIIYSRNQTVMFQCLHNLIRILPINCFLKNLKSGSENFLIDNMAFTLEKELVTLSSLSSAIAKHESNFMQRCEVSKGKSSVVAAALSDRRENIHPYRKELQREKKKMLQTNLKVSGALYREITLKVAEVQLKSDFAAQKLSNL [FANCB]”, for which the “solubility in G1/S (log2)” value in data set [1] is -0.208. In addition, the melting temperature in data set [2] (cell cycle stage: G1/S) came out at 53.7 °C; in data set [2] (cell cycle stage: mitosis) it was 53.8 °C. The “solubility change mitosis (log2)” value in data set [3] was -0.0928. Besides, the figures for the thermal stability score in data set [4] (setting [5]) and in data set [4] (cell cycle stage: mitosis) were 1.37 and 0.274, respectively.
